# From US7053194 (FOX CHASE CANCER CENTER, dated 2006)
# Molecular target: T1, GST p53 (amino acids 1-393), GST fusion protein of full-length p53 (human, UniProt P04637 1-393)
# T1 construct: not shown: glutathione S-transferase (GST) fusion partner
# Assay: in vitro interaction of truncated mSin3a with GST p53
# Procedure: GST-fusion proteins were prepared from E. coli cells as described (Murphy et al., Genes & Devel. 10:2971–2980, 1996). One microgram of GST or fusion protein was bound to glutathione sepharose beads and incubated with 10 uL of ^35S methionine labeled, in vitro translated proteins generated in a coupled transcription/translation system (TNT, Promega). Binding occurred in 300 uL of binding buffer (20 mM Hepes pH 7.9/150 mM KC1/1 mM EDTA/4 mM MgC12/1 mM DTT/0.02% NP-40/10% glycerol) supplemented with protease inhibitors. Proteins were bound for 30 minutes at 4 degrees, and bound complexes were washed three times in wash buffer with constant vortexing (20 mM Hepes pH 7.9/150 mM KC1/1 mM EDTA/4 mM MgCl2/1 mM DTT/0.1% NP-40/10% glycerol). Bound proteins were eluted in 1× Laemmli sample buffer and separated on 7.5% or 10% SDS-PAGE. […] Bound complexes were washed twice in NP-40 buffer, once in RIPA buffer, and resolved on SDS-PAGE.
# T1 sequence (P04637 whole entry, the tested form may be a part): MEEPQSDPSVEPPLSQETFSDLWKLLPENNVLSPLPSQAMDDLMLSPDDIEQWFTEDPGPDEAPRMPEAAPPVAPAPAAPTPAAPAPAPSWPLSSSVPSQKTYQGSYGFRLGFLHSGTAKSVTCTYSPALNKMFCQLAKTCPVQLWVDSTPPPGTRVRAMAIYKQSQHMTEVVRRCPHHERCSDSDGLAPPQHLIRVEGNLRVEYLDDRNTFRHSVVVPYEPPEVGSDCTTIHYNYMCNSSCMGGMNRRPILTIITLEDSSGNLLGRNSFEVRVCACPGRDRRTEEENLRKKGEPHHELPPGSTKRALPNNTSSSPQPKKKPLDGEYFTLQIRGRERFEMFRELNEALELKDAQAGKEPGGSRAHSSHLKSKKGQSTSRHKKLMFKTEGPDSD
row,Binder,binding result
1,"truncated mSin3a, amino acids 112-192 (paired amphipathic helix 1) (other, UniProt Q60520 112-192, looked up, range 112-192; Printed PAM is read as PAH1; also called PAM (so in the source); PAH1) VQGQQQFQRLKVEDALSYLDQVKLQFGSQPQVYNDFLDIMKEFKSQSIDTPGVISRVSQLFKGHPDLIMGFNTFLPPGYKI",no binding
2,"truncated mSin3a, amino acids 297-386 (PAH 2) (other, UniProt Q60520 297-386, looked up, range 297-386) QNNQPVEFNHAINYVNKIKNRFQGQPDIYKAFLEILHTYQKEQRNAKEAGGNYTPALTEQEVYAQVARLFKNQEDLLSEFGQFLPDANSS",no binding
3,"truncated mSin3a, amino acids 297-529 (PAH2-3) (other, UniProt Q60520 297-529, looked up, range 297-529) QNNQPVEFNHAINYVNKIKNRFQGQPDIYKAFLEILHTYQKEQRNAKEAGGNYTPALTEQEVYAQVARLFKNQEDLLSEFGQFLPDANSSVLLSKTTAEKVDSVRNDHGGTVKKPQLNNKPQRPSQNGCQIRRHSGTGATPPVKKKPKLMSLKESSMADASKHGVGTESLFFDKVRKALRSAEAYENFLRCLVIFNQEVISRAELVQLVSPFLGKFPELFNWFKNFLGYKESV",binds
